These results are taken from IntAct's records for PubMed 27273569.

The assay deals with wsb1_human WSB1 (UniProt Q9Y6I7).
Sequence of UniProt Q9Y6I7 (Q9Y6I7 whole entry): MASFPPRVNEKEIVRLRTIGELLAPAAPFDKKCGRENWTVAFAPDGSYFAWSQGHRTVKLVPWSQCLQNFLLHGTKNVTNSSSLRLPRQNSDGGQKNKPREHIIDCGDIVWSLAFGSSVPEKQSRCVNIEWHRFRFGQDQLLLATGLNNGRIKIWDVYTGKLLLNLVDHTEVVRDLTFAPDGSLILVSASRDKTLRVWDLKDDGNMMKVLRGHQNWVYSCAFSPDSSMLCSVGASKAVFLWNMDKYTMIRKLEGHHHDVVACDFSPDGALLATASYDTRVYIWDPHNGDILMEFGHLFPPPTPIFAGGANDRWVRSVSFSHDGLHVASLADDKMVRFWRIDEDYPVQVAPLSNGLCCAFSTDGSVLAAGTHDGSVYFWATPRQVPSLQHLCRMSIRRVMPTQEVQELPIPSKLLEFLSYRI

In the case of “Leucine-rich repeat serine/threonine-protein kinase 2 (Homo sapiens), Q5S007 G2019S”, the “effect of a mutation on the interaction” value is listed as “with no effect”.
